Our source for the IC50 in pseudovirus assays values is patent US20230250158A1.

This experiment concerns the target SARS-CoV-2 Spike protein on VSV pseudotyped virus particles (Wuhan-1 isolate Spike sequence) (SARS-CoV-2) (UniProt P0DTC2). Put plainly: cell-based or functional assay.

Turning to REGN10933 (antibody), the IC50 in pseudovirus assays is 0.67 µg/mL.

In turn, REGN10987 (antibody) displayed an IC50 in pseudovirus assays of 0.45 µg/mL.
